The target of assay [1] is T1, epitope containing residues 56-60 of SEQ ID NO: 7 within human TNFR2 (KCSPG) (human).
T1 construct: Motif within CRD1 of TNFR2
T1 peptide: KCSPG
The experiment in a line: epitope mapping analysis (peptide ELISA). On the technique in general: In an ELISA, binding on a coated surface is turned into a signal by an enzyme label.

Assay [2] concerns the target T2, recombinant human TNFR2 (human tumor necrosis factor receptor 2) (human, UniProt P20333 23-257).
T2 sequence: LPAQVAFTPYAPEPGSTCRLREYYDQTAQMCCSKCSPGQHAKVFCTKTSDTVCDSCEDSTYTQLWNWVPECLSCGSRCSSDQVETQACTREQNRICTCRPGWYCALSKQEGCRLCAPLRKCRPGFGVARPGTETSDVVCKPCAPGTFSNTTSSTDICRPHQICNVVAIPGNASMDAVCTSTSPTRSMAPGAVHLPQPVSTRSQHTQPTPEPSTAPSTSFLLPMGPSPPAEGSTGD
The experiment in a line: SPR (Biacore 3000), biotinylated antibody captured on streptavidin, recombinant human TNFR2 in solution. The method, then: The affinities of antagonistic TNFR2 antibodies for recombinant human TNFR2 were measured using BIACORE™ Analysis Services (Precision Antibody). Briefly, the antibody was biotinylated at a 5:1 stoichiometric ratio using biotinyl-LC-LC-[…] (Thermo-Fisher) in PBS. Excess biotinylation reagent was removed by centrifugation chromatography and the biotinylated antibody was captured on 3000 RU of streptavidin surface to a level of 100 RU. […] Analysis of the kinetics of antigen binding was performed at a flow of 60 μL/min with 2 min injections. Antibodies were injected at a concentration of 1 mg/ml to the final capture of 100 RU. The instrument used was BIACORE™ 3000 with the BioCap chip (GE Healthcare). Double reference method was used for analysis. Reference channel contained the identical level of streptavidin.
For orientation: Surface plasmon resonance follows binding to a sensor surface in real time, without labels.

For orientation: Kd means the constant that tells how readily two partners part at equilibrium. A word on the koff: it is the first-order rate constant of dissociation. As a reminder, the kon is the second-order rate constant of association.

B1: TNFRAB1 (antibody, V domains shown)
VH: EVQLQESGGGLVKPGGSLKLSCAASGFTFSSYVMSWVRQTPEKRLEWVATISSGGSYTYYPDSVKGRFTISRDNAKNTLYLQMSSLRSEDTAMYYCARQRVDGYSSYWYFDVWGAGTAVTVSS
VL: DIVLTQSPAIMSASPGEKVTITCSASSSVYYMYWFQQKPGTSPKLWIYSTSNLASGVPVRFSGSGSGTSYSLTISRMEAEDAATYYCQQRRNYPYTFGGGTKLEIKR
notes: Murine monoclonal antibody with two heavy and two light chains; also called antagonistic TNFR2 antibody TNFRAB1
Regarding B1, the binding result in assay [1] is “no binding”. Moreover, in assay [2], the Kd is ~44.4 pM, the koff was found to be 0.000221 s⁻¹ and the kon is 4.98e+06 M⁻¹ s⁻¹.

Source of the values: patent US20210340268A1 (GENERAL HOSPITAL, published 2021).
